Results taken from patent publication US20250230247A1 (DREN BIO, published 2025).
Positions count from the first letter of the chain named.

T1: human Dectin-1 (biosensor tests of Tables 3, 4A and 9; construct not stated) (human, UniProt Q9BXN2 66-247, limits assumed)
T1 construct: also called hDectin-1
T1 sequence (looked up): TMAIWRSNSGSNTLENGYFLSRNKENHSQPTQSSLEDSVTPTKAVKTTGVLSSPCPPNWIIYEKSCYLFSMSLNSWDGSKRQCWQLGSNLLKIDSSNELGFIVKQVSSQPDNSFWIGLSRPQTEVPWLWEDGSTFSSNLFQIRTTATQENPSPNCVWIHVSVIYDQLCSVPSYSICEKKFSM

T2: human Dectin-1 isoform A (human, UniProt Q9BXN2 1-247)
T2 construct: also called hDectin-1a; Dectin-1 on HEK-Blue hDectin-1a cells
T2 sequence: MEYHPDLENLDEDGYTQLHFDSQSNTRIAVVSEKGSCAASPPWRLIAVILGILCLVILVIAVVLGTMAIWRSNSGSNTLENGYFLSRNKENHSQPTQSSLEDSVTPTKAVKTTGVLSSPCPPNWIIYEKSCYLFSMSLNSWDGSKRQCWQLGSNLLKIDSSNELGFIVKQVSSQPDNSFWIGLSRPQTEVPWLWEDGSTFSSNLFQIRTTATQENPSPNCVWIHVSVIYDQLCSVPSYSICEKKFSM

B1: 2M24A.1.13 hFab (Fab, V domains shown)
VH: QVQLVQSGAEVKKPGASVKVSCKSSGYTFTDYYIHWVRQAPGQGLEWMGWINPNSGDTNYAQKFQGRITMTRDTSISTAYLELSRLRSDDTAVFYCARASGSYSFGYWGQGTLVTVSS
VL: DIQMTQSPSSVSASVGDRVTITCRASQGISSWLAWYQQKPGKAPKLLIFGASSLQSGVPSRFSGSGSGTDFTLTVSSLQPEDFATYYCQQAYSFPFTFGPGTKVDIE
notes: Fab; also called 2M24.1.13
B2: 2M24A.1.27 (Fab, V domains shown)
VH: B1 VH with A99N
VL: B1 VL with P95A
notes: Fab; also called 2M24.1.27
B3: 2M24A.1.5 hFab (Fab, V domains shown)
VH: B1 VH with A99N
VL: B1 VL with Y92A
notes: Fab; also called 2M24.1.5
B4: 2M24A.1.8 hFab (Fab, V domains shown)
VH: B1 VH
VL: B1 VL with Y92F
notes: Fab; also called 2M24.1.8
B5: 2M24A.1.21 (Fab, V domains shown)
VH: B1 VH with A99N, G106A
VL: B1 VL
notes: Fab; also called 2M24.1.21
B6: 2M24A.1.12 hFab (Fab, V domains shown)
VH: B1 VH with D57A, A99N
VL: B1 VL
notes: Fab; also called 2M24.1.12
B7: 2M24A.1.22 (Fab, V domains shown)
VH: B1 VH with A99N, Y107A
VL: B1 VL
notes: Fab; also called 2M24.1.22
B8: 2M24A.1.1 hFab (Fab, V domains shown)
VH: B1 VH with D31A, A99N
VL: B1 VL with Y92A
notes: Fab; also called 2M24.1.1
B9: 2M24A.1.23 (Fab, V domains shown)
VH: B1 VH with A99N
VL: B1 VL with Q89A
notes: Fab; also called 2M24.1.23
B10: 2M24A.1.19 (Fab, V domains shown)
VH: B1 VH with A99N, S104A
VL: B1 VL
notes: Fab; also called 2M24.1.19
B11: 2M24A.1.24 (Fab, V domains shown)
VH: B1 VH with A99N
VL: B1 VL with Q90A
notes: Fab; also called 2M24.1.24
B12: 2M24A.1.2 hFab (Fab, V domains shown)
VH: B1 VH with D57A, A99N
VL: B1 VL with Y92A
notes: Fab; also called 2M24.1.2
B13: 2M24A.1.29 (Fab, V domains shown)
VH: B1 VH with A99N
VL: B1 VL with T97A
notes: Fab; also called 2M24.1.29
B14: 2M24A.1.16 (Fab, V domains shown)
VH: B1 VH with A99N, S100A
VL: B1 VL
notes: Fab; also called 2M24.1.16
B15: 2M24A.1.11 hFab (Fab, V domains shown)
VH: B1 VH with D31A, A99N
VL: B1 VL
notes: Fab; also called 2M24.1.11
B16: 2M24A.1.17 (Fab, V domains shown)
VH: B1 VH with A99N, G101A
VL: B1 VL
notes: Fab; also called 2M24.1.17
B17: 2M24A.1.28 (Fab, V domains shown)
VH: B1 VH with A99N
VL: B1 VL with F96A
notes: Fab; also called 2M24.1.28
B18: 2M24A.1.20 (Fab, V domains shown)
VH: B1 VH with A99N, F105A
VL: B1 VL
notes: Fab; also called 2M24.1.20
B19: 2M24A.1.3 hFab (Fab, V domains shown)
VH: B1 VH
VL: B1 VL with Y92A
notes: Fab; also called 2M24.1.3
B20: 2M24A.1.6 hFab (Fab, V domains shown)
VH: B1 VH with D31A, A99N
VL: B1 VL with Y92F
notes: Fab; also called 2M24.1.6
B21: 2M24A.1.4 hFab (Fab, V domains shown)
VH: B1 VH with A99N, Y103A
VL: B1 VL with Y92A
notes: Fab; also called 2M24.1.4
B22: 2M24A.1.10 hFab (Fab, V domains shown)
VH: B1 VH with A99N
VL: B1 VL with Y92F
notes: Fab; also called 2M24.1.10
B23: 2M24A.1.25 (Fab, V domains shown)
VH: B1 VH with A99N
VL: B1 VL with S93A
notes: Fab; also called 2M24.1.25
B24: 2M24A.1.26 (Fab, V domains shown)
VH: B1 VH with A99N
VL: B1 VL with F94A
notes: Fab; also called 2M24.1.26
B25: 2M24A.1.18 (Fab, V domains shown)
VH: B1 VH with A99N, S102A
VL: B1 VL
notes: Fab; also called 2M24.1.18
B26: 2M24A.1.7 hFab (Fab, V domains shown)
VH: B1 VH with D57A, A99N
VL: B1 VL with Y92F
notes: Fab; also called 2M24.1.7
B27: 2M24A.23 hFab H1 (Fab, V domains shown)
VH: B1 VH with I68V, L81M, F94Y, A99N
VL: B1 VL
notes: Fab; also called 2M24.H1
B28: 2M24A.26 hFab H4 (Fab, V domains shown)
VH: B1 VH with I34M, I68V, L81M, F94Y, A99N
VL: B1 VL
notes: Fab; also called 2M24.H4
B29: 2M24A.24 hFab H2 (Fab, V domains shown)
VH: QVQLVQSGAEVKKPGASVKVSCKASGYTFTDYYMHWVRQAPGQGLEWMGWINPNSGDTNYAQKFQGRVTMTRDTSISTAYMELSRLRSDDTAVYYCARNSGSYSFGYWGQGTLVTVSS
VL: B1 VL
notes: Fab; also called 2M24.H2
B30: 2M24A.25 hFab H3 (Fab, V domains shown)
VH: B1 VH with S24A, I68V, L81M, F94Y, A99N
VL: B1 VL
notes: Fab; also called 2M24.H3
B31: 2M24 monospecific antibody (Example 18) (antibody, V domains shown)
VH: B1 VH with A99N
VL: B1 VL
notes: also called parental 2M24 antibody
B32: 2M24.119 monospecific antibody (antibody, V domains shown)
VH: B1 VH with S24A, I34M, S55E, Q65E, L81M, F94Y, A99N, S100T, S102A
VL: B1 VL with F49Y, S53D, V75I, S93G, E107K
B33: 2M24.116 monospecific antibody (antibody, V domains shown)
VH: B1 VH with S24A, I34M, S55E, G66E, L81M, F94Y, A99N, S100T, S102A
VL: B1 VL with F49Y, S53D, V75I, Q89H, E107K

molecular target: T1, human Dectin-1 (biosensor tests of …); assay: Octet response; as to X = 340: time not given here; as to X = 470: time not given here
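For delta in this document: Single-point dissociation rate (koff) fit for each variant binding domain, expressed as change versus the parental clone.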

Row | X = 340 | X = 470 | X = 290 | X = 350 | Binder
1 | 0.028 | 0 |  |  | B1
2 | 0.483 | 0.393 |  |  | B2
3 | 0.3 | 0.014 |  |  | B3
4 | 0.042 | 0 |  |  | B4
5 |  |  | 0.125 | 0.114 | B5
6 | 0.49 | 0.399 |  |  | B6
7 |  |  | 0.131 | 0.112 | B7
8 | 0.305 | 0.006 |  |  | B8
9 |  |  | 0.128 | 0.104 | B9
10 |  |  | 0.126 | 0.0983 | B10
11 |  |  | 0.115 | 0.073 | B11
12 | 0.331 | 0.006 |  |  | B12
13 | 0.456 | 0.35 |  |  | B13
14 |  |  | 0.12 | 0.114 | B14
15 | 0.499 | 0.418 |  |  | B15
16 |  |  | 0.131 | 0.129 | B16
17 | 0.309 | 0.031 |  |  | B17
18 |  |  | 0.0981 | 0.0215 | B18
19 | 0 | 0 |  |  | B19
20 | 0.493 | 0.39 |  |  | B20
21 | 0 | 0 |  |  | B21
22 | 0.49 | 0.402 |  |  | B22
23 | 0.475 | 0.432 |  |  | B23
24 | 0.231 | 0.018 |  |  | B24
25 |  |  | 0.138 | 0.124 | B25
26 | 0.51 | 0.398 |  |  | B26

molecular target: T1, human Dectin-1 (biosensor tests of …); assay: Fab K dis, run 1

Row | koff | Binder
27 | 0.00841 s⁻¹ | B27
28 | 0.0053 s⁻¹ | B28
29 | 0.00826 s⁻¹ | B29
30 | 0.00765 s⁻¹ | B30

molecular target: T1, human Dectin-1 (biosensor tests of …); assay: Octet
Procedure: Variant binding domains were generated, and binding affinity to human Dectin-1 was measured by biosensor (Octet). Single point off rate fits (k off) were determined for each clone and compared to the parental clone (delta), as shown in FIG. 71.

Row | delta | Binder
31 | 100% | B1
32 | 19% | B2
33 | 95% | B3
34 | 100% | B4
35 | 8% | B5
36 | 19% | B6
37 | 15% | B7
38 | 98% | B8
39 | 18% | B9
40 | 22% | B10
41 | 36% | B11
42 | 98% | B12
43 | 23% | B13
44 | 5% | B14
45 | 16% | B15
46 | 1% | B16
47 | 90% | B17
48 | 78% | B18
49 | 21% | B20
50 | 18% | B22
51 | 9% | B23
52 | 92% | B24
53 | 9% | B25
54 | 22% | B26

molecular target: T1, human Dectin-1 (biosensor tests of …); assay: Fab K dis, run 2

Row | koff | Binder
55 | 0.00143 s⁻¹ | B27
56 | 0.00102 s⁻¹ | B28
57 | 0.000616 s⁻¹ | B29
58 | 0.00132 s⁻¹ | B30

molecular target: T1, human Dectin-1 (biosensor tests of …); assay: Fab K dis, average of 3

Row | koff | Binder
59 | 0.00396 s⁻¹ | B27
60 | 0.00264 s⁻¹ | B28
61 | 0.00346 s⁻¹ | B29
62 | 0.0037 s⁻¹ | B30

molecular target: T1, human Dectin-1 (biosensor tests of …); assay: Fab K dis, run 3

Row | koff | Binder
63 | 0.00204 s⁻¹ | B27
64 | 0.0016 s⁻¹ | B28
65 | 0.0015 s⁻¹ | B29
66 | 0.00214 s⁻¹ | B30

molecular target: T2, human Dectin-1 isoform A; assay: flow cytometry on HEK Blue Dectin 1a cells (MFI)

Row | EC50 | Binder
67 | 0.343 nM | B31
68 | 0.393 nM | B32
69 | 0.37 nM | B33
